Test results taken from US20120082667A1.

Biological target: A beta oligomer prepared from synthetic A beta1-40 (HCl form), 0.1 mg/ml in PBS, incubated at 37 degrees C for one hour (UniProt P05067)
Assay: SPR, Biacore 3000, A beta1-40 oligomer on CM5 chip, antibody as analyte at five concentrations

“Anti-A beta antibody 6E10 (Covance Immuno-Technologies)” showed a Kd of 2.91 nM, a koff of 0.000168 s⁻¹ and a kon of 57800 M⁻¹ s⁻¹.
